The target of assay [1] is T1, cynomolgus monkey CD3 on the surface of expanded monkey T cells (cynomolgus monkey, UniProt Q95LI5 22-198; Q95LI8 22-171; Q95LI7 23-181).
T1 construct: whole, on cells; Endogenous CD3 within the TCR-CD3 complex on T cells expanded from cynomolgus monkey PBMC
In words: FACS, monkey T cells, hybridoma screening. As to the method:
(§1) Suspension cells Jurkat cells (purchased from Cell bank of Chinese Academy of Sciences) were scale-up cultured in T-175 cell culture flasks to the logarithmic growth phase, the supernatant of the medium was discarded by centrifugation, and the cell pellet was washed 2 times with PBS. After counting the cells in the previous step, the cell pellet was resuspended with [PBS+2% (w/v) FBS] blocking solution to 4×10⁶ cells/ml, and added to a 96-well FACS reaction plate at 50 μl/well, the supernatant was removed by centrifugation, detection antibodies (initial concentration of […], gradient dilution at 1:5) and an IgG negative control were added at 100 μl/well, the cells were uniformly mixed, and incubated on ice for 1 h. The cells were centrifuged and washed 3 times with a PBS buffer. […] The cells were centrifuged and washed 5 times with a PBS buffer, and FACS (FACS Canto II, purchased from BD Company) was used for detection and result analysis. Data analysis was performed by software (CellQuest) to obtain the mean fluorescence intensity (MFI) of the cells. And then software (GraphPad Prism8) was used for analysis, data fitting, and EC50 value calculation.
(§2) The binding of the supernatant of the hybridoma to human CD3ε/δ-His (purchased from Sino Biological, Inc. (China), catalog number: CT038-H2508H) and monkey CD3ε/δ-His (purchased from Acrobiosystems, CDD-C52W4) was detected by ELISA for the screening of the supernatant of the hybridoma (see Example 10.1 below). The binding of the supernatant of the ELISA positive hybridoma clone to Jurkat cells and monkey T cells was detected by flow cytometry, and the activation of Jurkat-Lucia NFAT cells (purchased from InvivoGen, catalog number: jktl-nfat) by the supernatant of the hybridoma was detected by a reporter gene system (see Example 2.1, Example 2.4 and Example 7.1 below for the method).

Assay [2] addresses T2, human CD3 on the cell surface (Jurkat cells, expanded human T cells, Jurkat-Lucia NFAT cells, human PBMC) (human, UniProt P07766 23-207; P04234 22-171; P09693 23-182).
T2 construct: whole, on cells; Endogenous CD3 within the TCR-CD3 complex on cells (also zeta chains and TCR); the cell type is named under assay
The experiment in a line: FACS, Jurkat cells, hybridoma screening. Here is the method: as §1, §2

The target of assay [3] is T3, monkey CD3ε/δ-His (monkey, UniProt Q95LI5 22-117; Q95LI8 22-105).
T3 construct: Bought recombinant heterodimer with His tag
T3 sequence (Q95LI5 22-117, stated change not applied, form in doubt, chain 1 of 2): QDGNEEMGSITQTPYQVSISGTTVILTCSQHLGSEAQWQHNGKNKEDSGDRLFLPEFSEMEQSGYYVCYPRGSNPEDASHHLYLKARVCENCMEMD
T3 sequence (Q95LI8 22-105, stated change not applied, form in doubt, chain 2 of 2): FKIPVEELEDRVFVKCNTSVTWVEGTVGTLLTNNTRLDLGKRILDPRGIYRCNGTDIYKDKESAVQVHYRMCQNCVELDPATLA
The experiment in a line: ELISA, coated antigen, hybridoma screening.
Excerpt: as §2
(§3) To detect the binding activity of the humanized antibodies to CD3 protein, CD3 protein was diluted with PBS to the final concentration of […], then added to a 96-well ELISA plate at 50 μL/well, and the plate was sealed with a plastic film, and incubated overnight at 4° C. On the next day, the plate was washed 2 times with PBS, and a blocking solution [PBS+2% (v/v) BSA] was added for blocking at room temperature for 2 h. The blocking solution was poured off, and the antibody (initial concentration of 100 nM, and gradient dilution at 1:10) or a negative control antibody was added at 50 µl/well. After incubation at 37° C. for 2 h, the plate was washed 3 times with PBS. […] TMB substrate was added at 50 μl/well, and incubated at room temperature for 10 min, and then a stop solution (1.0 N HCl) was added at 50 μl/well. The OD450 nm values were read by an ELISA microplate reader (Multimode Plate Reader, EnSight, purchased from Perkin Elmer).

Assay [4] has as its target T4, human CD3ε/δ-His (human, UniProt P07766 23-126; P04234 22-105).
T4 construct: Bought recombinant heterodimer with His tag; also called human CD3ε/δ protein
In words: ELISA, coated antigen, hybridoma screening.
Excerpt: as §2, §3

For assay [5], the target named is T2, human CD3 on the cell surface (Jurkat …). In words: cell-based or functional assay.
Assay [6] has the same target. The experiment in a line: FACS, expanded human T cells. As to the method: (§4) The binding of the chimeric antibodies to CD3 on the cell surface was analyzed by detecting the binding of the antibodies to Jurkat cells and human T cells. Suspension cells Jurkat cells were scale-up cultured in T-75 cell culture flasks to the logarithmic growth phase, the supernatant of the medium was discarded by centrifugation, and the cell pellet was washed 2 times with PBS for later use. The expanded human T cells were washed 2 times with PBS for later use. After counting the cells in the previous step, the cell pellet was resuspended with [PBS+2% (w/w) BSA] blocking solution to 4×10⁶ cells/ml, and added to a 96-well FACS reaction plate at 50 μl/well, and then the chimeric antibody to be tested was added at 50 μl/well, and incubated at 4° C. for 1 h. The cells were centrifuged and washed 3 times with a PBS buffer. […] The cells were centrifuged and washed 5 times with PBS, and FACS (FACS Canto™, purchased from BD Company) was used for detection and result analysis. Data analysis was performed by software (CellQuest) to obtain the mean fluorescence […] (MFI) of the cells. And then software (GraphPad Prism8) was used for analysis, data fitting, and EC50 value calculation. The same method was used to simultaneously detect the binding of the chimeric antibodies to endogenous CD3 negative cells MOLT4 cells.

Assay [7] addresses T5, recombinant human CD3ε-ECD His protein (human, UniProt P07766 23-126).
T5 construct: extracellular domain; also called human CD3ε-His; CD3ε antigen protein; not shown: His tag
In words: SPR (Biacore), antibody captured on Protein A chip. As to the method:
Sample buffer and running buffer were HBS-EP+(10 mM HEPES, 150 mM NaCl, 3 mM EDTA, 0.05% surfactant P20) (GE Healthcare; BR-1006-69). The flow-through cell was set to 25° C. The sample block was set to 16° C. Both were pretreated with the running buffer. In each cycle, the antibody to be detected was first captured with a Protein A chip, and then a single concentration of CD3ε antigen protein (purchased from Sino Biological, Inc. (China), catalog number: 10977-H08H) was injected. The binding and dissociation processes of the antibody and the antigen protein were recorded, and finally a glycine solution (pH 1.5, GE Healthcare; BR-1003-54) was used to complete chip regeneration. The binding was measured by injecting different concentrations of recombinant human CD3ε-ECD His proteins in a solution for 240 s with a flow rate of 30 μL/min. The concentration started from 200 nM (see the detailed results for the actual concentration in the test) and was diluted at 1:1, making a total of 5 concentrations. The dissociation phase was monitored for up to 600 s and was triggered by switching from sample solution to running buffer. The surface was regenerated by washing with a 10 mM glycine solution (pH 1.5) for 30 s at a flow rate of 30 μL/min. Bulk refractive index difference was corrected by subtracting the response obtained from the goat anti-human Fc surface. Blank injection was also subtracted (=double reference). For calculation of apparent KD and other kinetic parameters, Langmuir 1:1 model was used.

The target in assay [8] is T1, cynomolgus monkey CD3 on the surface of …. In words: FACS, expanded monkey T cells. Here is the method: as §4
FACS detection and data analysis were performed on the cryopreserved monkey T cells of Example 2.4 according to the method in Example 5.1.

Assay [9] has as its target T2, human CD3 on the cell surface (Jurkat …). The experiment in a line: cell-based or functional assay. The source holds these as a separate data set.
Assay [10] shares this target. The experiment in a line: FACS, Jurkat cells. Here is the method:
as §4

T2 sequence (P07766 23-207, chain 1 of 3): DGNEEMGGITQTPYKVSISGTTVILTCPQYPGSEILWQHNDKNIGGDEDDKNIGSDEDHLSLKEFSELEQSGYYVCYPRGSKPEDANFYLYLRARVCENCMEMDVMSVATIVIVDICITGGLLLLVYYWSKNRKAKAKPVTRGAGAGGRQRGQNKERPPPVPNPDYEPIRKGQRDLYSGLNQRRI
T2 sequence (P04234 22-171, chain 2 of 3): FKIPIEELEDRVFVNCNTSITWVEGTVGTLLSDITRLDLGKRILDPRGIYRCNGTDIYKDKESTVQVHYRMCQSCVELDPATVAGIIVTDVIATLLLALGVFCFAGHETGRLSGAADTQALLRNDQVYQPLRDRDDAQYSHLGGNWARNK
T2 sequence (P09693 23-182, chain 3 of 3): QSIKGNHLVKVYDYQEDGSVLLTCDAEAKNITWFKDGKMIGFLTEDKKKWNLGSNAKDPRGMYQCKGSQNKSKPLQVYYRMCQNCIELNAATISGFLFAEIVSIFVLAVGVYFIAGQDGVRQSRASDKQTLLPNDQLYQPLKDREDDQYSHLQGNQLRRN
T5 sequence (P07766 23-126): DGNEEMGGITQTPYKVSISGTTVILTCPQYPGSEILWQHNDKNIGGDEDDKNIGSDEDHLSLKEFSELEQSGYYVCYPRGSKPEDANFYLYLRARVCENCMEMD
T4 sequence (P07766 23-126, stated change not applied, form in doubt, chain 1 of 2): as the sequence (P07766 23-126) above
T4 sequence (P04234 22-105, stated change not applied, form in doubt, chain 2 of 2): as the sequence (Q95LI8 22-105, stated change not applied, form in doubt, chain 2 of 2) above, with V5I, K15N, V20I, T32S, N33D, N34I, A64T, N74S, L83V counted along it

B1: 5-7.13 murine hybridoma antibody (supernatant) (antibody, V domains shown)
VH: QVQLQQPGTELVKPGASVKLSCKASGYTFTSYWVHWVKQRPGQGLEWIGNINPSDGVTNYNEKFKSRATLTVDKSSSTAYMQLSSLTSEDSAVYYCTRDAYGQYYFDDWGQGTTLTVSS
VL: DIVMSQSPSSLVVSAGEKVTMSCKSSQSLLNSRTRKNYLAWYQQKPGQSPKLLIYWASVRDSGVPDRFTGSGSGTDFTLTISNVQAEDLAVYYCIQSYYLRTFGGGTILEIK
notes: Tested as hybridoma supernatant
With B1, the Mean fluorescence intensity in assay [1] stood at 16300 MFI; in [2], 8280 MFI. The values for the OD450 in [3] and in assay [4] were 2.09 OD450 and 2.08 OD450, respectively. In assay [5], the “Reporter assay (RLU), Jurkat-Lucia NFAT, supernatant diluted by 4 times” value (“Reporter assay (RLU) … by 4 times” for short) came out at 24500 RLU. In addition, the “Reporter assay (RLU), Jurkat-Lucia NFAT, supernatant diluted by 20 times” value (from here on “Reporter assay (RLU) … by 20 times”) in [5] worked out at 27800 RLU.

B2: 7-35.6 murine hybridoma antibody (supernatant) (antibody, V domains shown)
VH: EVQLVESGGGLVQPKGSLKLSCAASGFTFNTYAMNWVRQAPGKGLEWVGRIRSKINNYATYYGDSVKDRFTISRDDSQSMFYLQMNNLKTEDTAMYYCVIHENYGSISWFAYWGQGTLVTVSA
VL: QAVVTQESTLTTSPGETVTLTCRSSTGAVTTSNYANWVQEKPDHLFTGLIGGTNNRAPGVPARFSGSLIGDKAALTITGAQTEDEAIYFCALWYSNHWVFGGGTKLTVL
notes: as for B1
Take B2: the Mean fluorescence intensity in assay [1] was determined as 1650 MFI; in [2], 284 MFI. Moreover, the OD450 in [3] turned out to be 1.46 OD450; in [4], 1.56 OD450. In addition, the “Reporter assay (RLU) … by 4 times” value in assay [5] turned out to be 27400 RLU. For the same molecule, the “Reporter assay (RLU) … by 20 times” value in [5] was determined as 14800 RLU.

B3: 8-18.1 murine hybridoma antibody (supernatant) (antibody, V domains shown)
VH: QVQLQQSGAELARPGASVKMSCKASGYIFTMNTMHWVKQRPGQGLEWIGYINPYSGYTKYNQIFKDKATLTADKSSSTAYMRLSSLTSEDSAVYYCLRGGEGVWGQGTTLTVSS
VL: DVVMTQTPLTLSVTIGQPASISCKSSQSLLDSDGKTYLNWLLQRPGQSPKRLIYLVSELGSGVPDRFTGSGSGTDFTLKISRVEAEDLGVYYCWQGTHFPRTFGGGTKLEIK
notes: as for B1
As for B3, the Mean fluorescence intensity in [1] was 3100 MFI; in assay [2], 895 MFI. The OD450 in [3] is 2.14 OD450; in assay [4], 2.04 OD450. Also, the “Reporter assay (RLU) … by 4 times” value in assay [5] worked out at 27000 RLU. In addition, the “Reporter assay (RLU) … by 20 times” value in assay [5] is 17800 RLU.

B4: 1-22.6 human-murine chimeric antibody (antibody, human IgG1, kappa, V domains shown)
VH: QIPLVQSGPELKKPGETVKISCKTSGYTFTSYGMSWVKQAPGKGLKWMGWINTYSGVPTYADDFKGRFVFSLDTSASTAFLQINNLKNEDTATYFCARLKNNPFCWGQGSTLTVFS
VL: DVLMTQSPLSLPVRLGDQASISCRSSQLILHSNGNTYLEWYLQKPGQSPKLLIYKVSNRFSGVPDRFSGSGSGTDFTLKISRVEAEDLGVYYCFQGSHFPWTFGGGTKLEIKR
In assay [6], B4 had a concentration giving a half-maximal response (EC50) of 18.1 nM and an MFI_Max of 15100 MFI. Further, in [7], the Kd stood at 5.51 nM, the koff was 0.000699 s⁻¹ and the kon turned out to be 127000 M⁻¹ s⁻¹. Moreover, in [8], the EC50 came to 5.51 nM and the MFI_Max amounted to 43600 MFI. Moreover, in [9], the “EC50 (nM), luciferase reporter, Jurkat-Lucia NFAT cells” value worked out at 11.6 nM and the “Maximum response value (RLU)” value stood at 31700 RLU. In [10], this molecule had an EC50 of 4.28 nM and an MFI_Max of 2080 MFI.

Source of the values: US20250136687A1 (SHANDONG SIMCERE BIOPHARMACEUTICAL, published 2025).
